Test results as given in IntAct's records for PubMed 22495310.

B1: CREB-regulated transcription coactivator 2 (Mus musculus), Q3U182 (parent)
chain: MATSGANGPGSATASASNPRKFSEKIALQKQRQAEETAAFEEVMMDIGSTRLQAQKLRLAYTRSSHYGGSLPNVNQIGCGLAEFQSPLHSPLDSSRSTRHHGLVERVQRDARRMVSPLRRYPRHIDSSPYSPAYLSPPPESGWRRMMPWGNLPAEKGQLFRLPSALNRTSSDSALHTSVMNPNPQDTYPGPTPPSVLPSRRGGGFLDGEMDAKVPAIEENVVDDKHLLKPWDAKKLSSSSSRPRSCEVPGINIFPSPDQPANVPVLPPAMNTGGSLPDLTNLHFPPPLPTPLDPEETVYPSLSGGNSTTNLTHTMTHLGISGGLGLGPSYDVPGLHSPLSHPSLQSSLSNPNLQASLSSPQPQLQGSHSHPSLPASSLAHHALPTTSLGHPSLSAPALSSSSSSSSTSSPVLSAPPYPASTPGASPRHRRVPLSPLSLPAGPADARRSQQQLPKQFSPTMSPTLSSITQGVPLDTSKLPTDQRLPPYPYSPPSLVIPTHPPTPKSLQQLPSQACLVQPSGGQPPGRQPHYGALYPPGSSGHGQQPYHRPINDFSLGNLEQFNMESPSTSLVLDPPAFSEGPGFLGSEGSMSGPQDPHVLNHQNLTHCSRHGSGPNIILTGDSSPGFSKEIAAALAGVPGFEVSASGLELGLGLEDELRMEPLGLEGLTMLSDPCALLPDPAVEDSFRSDRLQ

Variants of: B1
Conditions: with pp2ba_mouse Ppp3ca

effect of a mutation on the interaction	Variant
decreasing interaction strength	P614G;I616A;L618A;T619A
